{"source": "paper PMC8514705", "target": "recombinant DR4 extracellular domain (UniProt O00220)", "sequence (O00220 24-239)": "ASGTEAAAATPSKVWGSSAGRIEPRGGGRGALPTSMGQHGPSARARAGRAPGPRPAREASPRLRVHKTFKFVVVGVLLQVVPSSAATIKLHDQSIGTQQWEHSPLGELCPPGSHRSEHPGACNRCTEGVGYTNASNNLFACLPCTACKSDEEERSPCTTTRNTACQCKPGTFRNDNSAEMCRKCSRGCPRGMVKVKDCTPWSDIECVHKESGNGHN"}
{"substance": "TRAIL (tumor necrosis factor-associated ligand inducing apoptosis), recombinant, amino acid residues 114-280 (from UniProt P50591 114-280)", "values": [{"measurement": "decrease of surface DR4 on HCT116 and HT-29 cells with 1,000 ng/ml TRAIL, time course, flow cytometry", "result": 90, "unit": "%"}]}
